# From article PMC10794148
# Values joined by “and” are separate entries in the source; they are usually repeats but may differ in a detail not shown here. Equal values may be shown once.
# How the values were obtained:
# [1] = target: human nucleosome core particle, wild type, unlabelled (human) (UniProt P04908); assay: native gel or EMSA; 50 or 100 nM 147-bp hNCP with 200 or 50 nM mcGAS-CR and 0–1.2 µM MRN; 20 mM HEPES pH 7.5, 50 mM NaCl, 5% sucrose, 1 mM DTT; on ice; gel scanned for mcGAS-CR fluorescence, then ethidium bromide
# [2] = target: 6×His-Sumo tagged mouse cGAS catalytic domain (UniProt Q8C6L5); assay: TR-FRET competition assay; settings: unlabelled competitor at the highest titrated concentration, est. ~5,000 nM; signal is residual cGAS-biotin-NCP TR-FRET (lower = more competition); parent: est. 0.16; read off a plot
# [3] = target: 147 bp nucleosome reconstituted with H2B(K125C)-biotin (human) (UniProt P04908); assay: AlphaScreen or HTRF; TR-FRET competition: 15 nM 6×His-Sumo-mcGAS, 2 nM biotin NCP, 4 nM Eu-W1024 streptavidin, 10 nM ULight-anti-6×His; 0–2,000 nM untagged MRN or 0–5,000 nM unlabelled nucleosome; 10 mM Tris-HCl pH 7.5, 50 mM NaCl, 5% glycerol, 0.01% NP-40, 0.01% CHAPS, 5 mM DTT, 100 µg/ml BSA; 1 h at room temperature
substance,measurement,setting,value
carboxyrhodamine-labelled mouse cGAS catalytic domain (from UniProt Q8C6L5 141-507) (domain or fragment),stoichiometry N,[1],1 cGAS per NCP and 2 cGAS per NCP
"human nucleosome core particle, wild type, unlabelled (from UniProt P04908;P62807;Q71DI3;P62805) H2A:E61A; H2A:E64S; H2A:N68A; H2A:D72S; H2A:N89A; H2A:D90A; H2A:E91S",response (normalized fluorescence),[2],0.63
untagged MRN complex (mixture of 2 unlabelled MR:1 NBS1–Flag) (from UniProt P49959 1-708; Q92878 1-1312; O60934 1-754),percent reduction of the cGAS–NCP TR-FRET signal at plateau,[3],50%
